In patent publication US20250295731A1:

Key:
[1] = target: α9β1 integrin (UniProt Q13797); assay: inhibition of α9LN18 cell adhesion to immobilized F9 fraction
[2] = target: α9β1 integrin (UniProt Q13797); assay: inhibition of α9LN18 cell adhesion to immobilized recombinant VCAM-1
[3] = target: α9β1 integrin (UniProt Q13797); assay: inhibition of α9+ cell adhesion to immobilized VCAM-1
[4] = target: α9β1 integrin (UniProt Q13797); assay: inhibition of α9+ cell adhesion to immobilized Fraction 9-4

Sequence of UniProt Q13797 (Q13797 30-1035, chain 1 of 2): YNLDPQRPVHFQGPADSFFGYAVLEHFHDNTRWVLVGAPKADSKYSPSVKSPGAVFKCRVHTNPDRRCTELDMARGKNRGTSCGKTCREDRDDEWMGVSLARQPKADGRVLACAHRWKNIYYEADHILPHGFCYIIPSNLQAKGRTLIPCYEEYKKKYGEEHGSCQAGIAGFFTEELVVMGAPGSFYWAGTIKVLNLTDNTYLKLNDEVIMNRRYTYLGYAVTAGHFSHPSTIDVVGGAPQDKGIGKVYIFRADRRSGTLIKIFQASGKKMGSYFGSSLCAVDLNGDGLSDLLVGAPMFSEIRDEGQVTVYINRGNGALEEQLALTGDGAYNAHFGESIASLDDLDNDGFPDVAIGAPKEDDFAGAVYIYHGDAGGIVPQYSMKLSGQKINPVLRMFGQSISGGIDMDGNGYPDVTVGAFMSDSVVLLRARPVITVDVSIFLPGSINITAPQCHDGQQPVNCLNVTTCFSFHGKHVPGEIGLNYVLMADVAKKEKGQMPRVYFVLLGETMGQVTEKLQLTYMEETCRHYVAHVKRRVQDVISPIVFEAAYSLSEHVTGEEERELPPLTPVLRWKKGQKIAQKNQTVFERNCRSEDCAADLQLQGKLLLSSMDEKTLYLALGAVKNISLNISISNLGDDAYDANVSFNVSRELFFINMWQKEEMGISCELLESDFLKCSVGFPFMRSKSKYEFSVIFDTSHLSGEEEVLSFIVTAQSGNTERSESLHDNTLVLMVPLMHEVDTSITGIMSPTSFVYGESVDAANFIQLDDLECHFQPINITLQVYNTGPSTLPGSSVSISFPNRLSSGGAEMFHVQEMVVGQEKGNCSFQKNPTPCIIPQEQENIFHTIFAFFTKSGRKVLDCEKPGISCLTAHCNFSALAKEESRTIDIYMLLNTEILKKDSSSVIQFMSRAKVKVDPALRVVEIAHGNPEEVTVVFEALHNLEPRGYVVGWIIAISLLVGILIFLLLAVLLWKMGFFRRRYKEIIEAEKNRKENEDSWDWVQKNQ
Sequence of UniProt Q13797 (P05556 21-798, chain 2 of 2, further chain): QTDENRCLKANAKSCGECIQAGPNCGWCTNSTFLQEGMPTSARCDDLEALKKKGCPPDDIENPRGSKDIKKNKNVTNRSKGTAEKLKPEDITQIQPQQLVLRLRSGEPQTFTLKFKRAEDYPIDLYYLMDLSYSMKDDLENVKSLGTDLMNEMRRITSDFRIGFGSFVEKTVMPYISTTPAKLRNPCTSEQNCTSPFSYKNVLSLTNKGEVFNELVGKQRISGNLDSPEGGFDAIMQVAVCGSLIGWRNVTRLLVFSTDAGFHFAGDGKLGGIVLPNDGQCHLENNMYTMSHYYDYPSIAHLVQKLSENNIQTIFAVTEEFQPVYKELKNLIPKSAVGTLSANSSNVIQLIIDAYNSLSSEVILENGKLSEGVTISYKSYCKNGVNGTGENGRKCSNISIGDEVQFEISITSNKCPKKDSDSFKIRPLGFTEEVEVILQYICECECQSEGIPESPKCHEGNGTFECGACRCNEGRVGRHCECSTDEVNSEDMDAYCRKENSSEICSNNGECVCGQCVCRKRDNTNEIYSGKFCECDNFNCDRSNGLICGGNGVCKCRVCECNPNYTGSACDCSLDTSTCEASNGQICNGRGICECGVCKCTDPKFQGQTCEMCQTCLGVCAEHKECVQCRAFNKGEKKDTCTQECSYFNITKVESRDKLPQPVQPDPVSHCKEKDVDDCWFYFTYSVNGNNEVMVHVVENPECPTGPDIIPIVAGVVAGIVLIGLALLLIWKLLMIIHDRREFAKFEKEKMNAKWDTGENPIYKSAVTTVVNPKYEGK
Sequence of VLO5, snake venom MLD-disintegrin (P0C6A9 whole entry): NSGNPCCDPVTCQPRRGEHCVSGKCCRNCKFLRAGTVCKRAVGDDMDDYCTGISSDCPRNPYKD
Sequence of VLO5, snake venom MLD-disintegrin (P0C6B0 whole entry, further chain): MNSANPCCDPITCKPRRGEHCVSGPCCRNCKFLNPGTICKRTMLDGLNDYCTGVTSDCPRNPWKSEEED

Row | concentration giving complete inhibition of cell adhesion [1] | concentration giving complete inhibition of cell adhesion [2] | Substance | IC50 [3] | IC50 [4]
1 | 500 µM | 500 µM | CS-1 peptide EILDVPST | – | –
2 | – | – | VLO5, snake venom MLD-disintegrin | 3.2 nM | 5.6 nM
